This note sets out measurements from article PMC11022571, “Functional analysis of feedback inhibition-insensitive aspartate kinase identified in a threonine-accumulating mutant of Saccharomyces cerevisiae” (Applied and Environmental Microbiology, 2024).

Data set [1] has as its target T1, Hom3 (aspartate kinase, AK) (Saccharomyces cerevisiae, UniProt P10869).
T1 sequence (P10869 1-527): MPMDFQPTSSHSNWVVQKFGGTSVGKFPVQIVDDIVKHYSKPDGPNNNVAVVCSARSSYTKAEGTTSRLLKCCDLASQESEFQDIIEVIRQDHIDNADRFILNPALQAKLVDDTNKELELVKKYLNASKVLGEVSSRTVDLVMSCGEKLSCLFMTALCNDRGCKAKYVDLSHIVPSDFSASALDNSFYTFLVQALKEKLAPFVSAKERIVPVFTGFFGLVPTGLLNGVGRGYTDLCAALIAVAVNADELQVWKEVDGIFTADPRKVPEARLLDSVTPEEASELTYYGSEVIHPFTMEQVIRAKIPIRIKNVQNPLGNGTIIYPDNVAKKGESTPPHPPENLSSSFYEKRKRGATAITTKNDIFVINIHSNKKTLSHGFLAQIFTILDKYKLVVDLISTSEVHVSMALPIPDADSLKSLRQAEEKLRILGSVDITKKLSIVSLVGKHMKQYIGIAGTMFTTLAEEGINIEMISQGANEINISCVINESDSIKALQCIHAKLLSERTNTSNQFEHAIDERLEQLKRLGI
The experiment in a line: PK/LDH-coupled AK assay at […] Asp and […] ATP; BN-PAGE shift from ~[…] to ~[…] kDa with […] Thr. The data set is classed as biochemical.

Substrate in data set [2]: N[C@@H](CC(=O)O)C(=O)O
The experiment in a line: steady-state kinetics (Km), PK/LDH-coupled assay. The data set is classed as biochemical, Saccharomyces cerevisiae. The conditions noted are these: Mg2+ ([…] MgSO4 in assay).

Substrate in data set [3]: Nc1ncnc2c1ncn2[C@@H]1O[C@H](COP(=O)(O)OP(=O)(O)OP(=O)(O)O)[C@@H](O)[C@H]1O
The experiment in a line: steady-state kinetics (Km), PK/LDH-coupled assay. The settings on record: Mg2+ ([…] MgSO4 in assay). The data set is classed as biochemical, Saccharomyces cerevisiae.

In general, IC50 refers to the concentration needed to halve the response being measured. In the case of `C[C@@H](O)[C@H](N)C(=O)O` [threonine], the IC50 in data set [1] amounted to 5.4 ± 0.12 mM.

B1: Hom3 (aspartate kinase, AK) (Saccharomyces cerevisiae S288C) (protein)
chain: MPMDFQPTSSHSNWVVQKFGGTSVGKFPVQIVDDIVKHYSKPDGPNNNVAVVCSARSSYTKAEGTTSRLLKCCDLASQESEFQDIIEVIRQDHIDNADRFILNPALQAKLVDDTNKELELVKKYLNASKVLGEVSSRTVDLVMSCGEKLSCLFMTALCNDRGCKAKYVDLSHIVPSDFSASALDNSFYTFLVQALKEKLAPFVSAKERIVPVFTGFFGLVPTGLLNGVGRGYTDLCAALIAVAVNADELQVWKEVDGIFTADPRKVPEARLLDSVTPEEASELTYYGSEVIHPFTMEQVIRAKIPIRIKNVQNPLGNGTIIYPDNVAKKGESTPPHPPENLSSSFYEKRKRGATAITTKNDIFVINIHSNKKTLSHGFLAQIFTILDKYKLVVDLISTSEVHVSMALPIPDADSLKSLRQAEEKLRILGSVDITKKLSIVSLVGKHMKQYIGIAGTMFTTLAEEGINIEMISQGANEINISCVINESDSIKALQCIHAKLLSERTNTSNQFEHAIDERLEQLKRLGI
The Km is the substrate concentration at which the rate is half of its maximum. In general, kcat refers to the number of substrate molecules converted per active site and unit of time at saturation. What is called kcat/Km is the turnover number divided by the Michaelis constant. Turning to B1, in data set [2], the Michaelis-Menten constant (Km) was determined as 3800 ± 360 µM, the turnover number (kcat) is 55 ± 1.5 s⁻¹ and the kcat/Km was found to be 15000 M⁻¹ s⁻¹. Besides, in data set [3], the Michaelis constant (Km) was found to be 830 ± 44 µM, the kcat came out at 54 ± 0.78 s⁻¹ and the kcat/Km stood at 65000 M⁻¹ s⁻¹.

B2: Hom3 (aspartate kinase, AK) (Saccharomyces cerevisiae S288C; A462T) (protein)
chain: MPMDFQPTSSHSNWVVQKFGGTSVGKFPVQIVDDIVKHYSKPDGPNNNVAVVCSARSSYTKAEGTTSRLLKCCDLASQESEFQDIIEVIRQDHIDNADRFILNPALQAKLVDDTNKELELVKKYLNASKVLGEVSSRTVDLVMSCGEKLSCLFMTALCNDRGCKAKYVDLSHIVPSDFSASALDNSFYTFLVQALKEKLAPFVSAKERIVPVFTGFFGLVPTGLLNGVGRGYTDLCAALIAVAVNADELQVWKEVDGIFTADPRKVPEARLLDSVTPEEASELTYYGSEVIHPFTMEQVIRAKIPIRIKNVQNPLGNGTIIYPDNVAKKGESTPPHPPENLSSSFYEKRKRGATAITTKNDIFVINIHSNKKTLSHGFLAQIFTILDKYKLVVDLISTSEVHVSMALPIPDADSLKSLRQAEEKLRILGSVDITKKLSIVSLVGKHMKQYIGIAGTMFTTLTEEGINIEMISQGANEINISCVINESDSIKALQCIHAKLLSERTNTSNQFEHAIDERLEQLKRLGI
B2: in data set [2], the Michaelis constant (Km) was found to be 4400 ± 370 µM, the kcat turned out to be 55 ± 1.4 s⁻¹ and the catalytic efficiency (kcat/Km) is 13000 M⁻¹ s⁻¹. Moreover, in data set [3], the Km was 1000 ± 71 µM, the kcat stood at 53 ± 1.1 s⁻¹ and the kcat/Km turned out to be 51000 M⁻¹ s⁻¹.
